Data from patent US8476407B2, “Metallopeptide catalysts” (William Marsh Rice University, priority 2009, dated 2013).
Marks after values point to notes of the source that are not given here. Residues, ends and D or L forms follow the SMILES beside them. No end group written: not given here.

How the values were obtained:
[1] = test system: K3a,eRh2; experiment: Covalent modification of E3gX peptides with diazo reagent 1 catalysed by K3a,eRh2; type: biochemical; conditions: for krel, relative modification rate: initial rate of product formation at 1 hour, corrected for catalyst concentration; for modification of variable residue (in words): metallopeptide catalyst K3a,eRh2 and diazo reagent 1
Experimental: Binding the dirhodium center at positions a and e ensures that the metal will be held proximal to the coil-coil interface, and the a, e spacing serves to stabilize the necessary helical structure.
Covalent modification of variable residue g was then examined.
Relative modification rates (krel) were based on conversion at 1 hour, which corrects for catalyst loading and assumes first-order catalysis.

[2] = biological target: T1, bZip domain of c-Fos (Homo sapiens, UniProt P01100, A167K/D174T/K188A/T181D); experiment: Covalent modification of c-Fos with diazo reagent 1 catalysed by metallopeptide; type: biochemical; conditions: for c-Fos residue modified: MS/MS fragmentation analysis; for conversion of c-Fos: 45 h, metallopeptide and diazo 1 added in small portions
T1 sequence (P01100 162-193 A167K/D174T/T181D/K188A limits assumed): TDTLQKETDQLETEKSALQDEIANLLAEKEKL
Experimental: FIG. 5. MALDI-TOF MS spectra of c-Fos (SEQ ID NO: 15) modification catalyzed by Jun(Rh2) (A) (SEQ ID NO: 14) and Max(Rh2) (B)(SEQ ID NO: 16). Reactions were 100 μM in substrate at pH 6.5. Metallopeptide and diazo 1 were added portion-wise to final concentrations of 200 μM and 5 mM, respectively. Sequences illustrate the expected alignment of the coiled coils and the site of modification (B) In the inset table, the ratio in parentheses indicates the ratio of singly to doubly modified product.
Metallopeptide Jun(Rh2) was prepared based on an affinity-optimized c-Jun variant with glutamate residues in g and […] positions. The target was the bZip domain of c-Fos, an oncogene product that regulates transcription by forming a heterodimeric coiled coil with c-Jun.
(§1) Purified Jun variant was metalated with Rh2(OAc)2(tfa)2 in aqueous buffer. […] In initial studies at 4° C., crude Jun(Rh2) directly from the metalation process could be used in modification reactions with activity identical to that of purified material, thus avoiding time-consuming and unnecessary material loss that accompanied isolation.
Catalytic activity was also investigated for a second metallopeptide based on the leucine-zipper Max.
For Jun(Rh2), MALDI-TOF MS/MS analysis established that Gln19 (position e) was modified. […] In the case of Max(Rh2), the dominant fragmentation pathway was cleavage of the modifying group.

[3] = Solubility on isolation; type: physicochemical; conditions: isolation after metalation in aqueous buffer
Experimental: as §1

[4] = Circular dichroism (CD) helicity of peptides and dirhodium adducts; type: physicochemical; conditions: for [θ]220, residual molar ellipticity: CD at 220 nm, water; for fH, helicity content: calculated from [θ]220, fH = ([θ]220 − [θ]c)/([θ]inf − [θ]c); for Rel. Hel %, relative helicity: calculated with [θ]inf = [θ]220 of EE4-Rh2(OAc)2; for fH (TFE), helicity content: calculated with [θ]inf = [θ]220 of EE4 in 100% TFE; for effect of dirhodium binding on helicity (in words): CD spectroscopy
Experimental: Peptides were prepared having 18 amino acids and a propensity toward helicity due to an alanine-rich sequence (Table 1). A complete turn of an α-helix requires about three or four amino acids, so carboxylate side chains (Asp, Glu) were placed in an i, i+3 or an i, i+4 relationship.
The peptides reacted with cis-Rh2(OAc)2(TFA)2, producing adducts with bridging dirhodium centers for both i, i+3 and i, i+4 carboxylate spacing. Circular dichroism (CD) spectroscopy assessed the effect of dirhodium binding on helicity.

[5] = biological target: T2, Fos (Homo sapiens, UniProt P01100, A167K/D174T/K188A/T181D); experiment: Temperature-dependent folding of Fos-metallopeptide coiled coil; type: physicochemical; conditions: Fos-Max(Rh2) temperature-dependent folding
T2 sequence (P01100 162-193 A167K/D174T/T181D/K188A limits assumed): T1 sequence (P01100 162-193 A167K/D174T/T181D/K188A limits assumed)
Experimental: Amazingly, site-specific reactivity can be templated on molecular recognition in interactions with such low affinities that they are uncharacterizable by available methods. Because metallopeptide Jun(Rh2) has ≧100 μM affinity for Fos, reactions at 10 μM successful even though the desired Fos-Jun(Rh2) dimer is not the major species.

[6] = 50 mol % K3a,eRh2, 10 mM diazo 1 added in two portions, 50 μM substrate, pH 6.2
[7] = 20 mol % K3a,eRh2, 10 mM diazo 1 added in two portions, 50 μM substrate, pH 6.2

| Compound | krel, relative modification rate [1] | [θ]220, residual molar ellipticity [4] [deg cm^2 dmol-res^-1] | fH, helicity content [4] | Rel. Hel %, relative helicity [4] [%] | fH (TFE), helicity content [4] | effect of dirhodium binding on helicity (in words) [4] | other results |
| --- | --- | --- | --- | --- | --- | --- | --- |
| N=C(N)NCCC[C@H](N)C(=O)O [Arg] | 100 |  |  |  |  |  | % conv. at 24 h [1, 6]: 73% |
| N[C@@H](CC(=O)O)C(=O)O [Asp] | 100 |  |  |  |  |  | % conv. at 24 h [1, 7]: 53%; modification of variable residue (in words) [1]: modest conversion |
| N[C@@H](CS)C(=O)O [Cys] | 560 |  |  |  |  |  | % conv. at 24 h ([1]; 10 mol % K3a,eRh2, 2.5 mM diazo 1, 50 μM substrate, pH 6.2, room temperature): 78% |
| NC(=O)CC[C@H](N)C(=O)O [Gln] | 260 |  |  |  |  |  | % conv. ([1]; 10 mol % K3a,eRh2, reaction time 6 hours, 2.5 mM diazo 1, 50 μM substrate, pH 6.2): > 95% |
| N[C@@H](CCC(=O)O)C(=O)O [Glu] | 130 |  |  |  |  |  | % conv. at 24 h [1, 7]: 76% |
| N[C@@H](Cc1c[nH]cn1)C(=O)O [His] | 20 |  |  |  |  |  | % conv. at 24 h [1, 6]: 17^g %; modification of variable residue (in words) [1]: modest conversion |
| CC[C@H](C)[C@H](NC(=O)[C@H](CCC(N)=O)NC(=O)[C@H](CCC(N)=O)NC(=O)[C@H](CCCNC(=N)N)NC(=O)[C@H](CC(C)C)NC(=O)[C@H](CO)NC(=O)[C@H](CC(N)=O)NC(=O)[C@H](C)NC(=O)[C@@H](NC(=O)[C@H](CO)NC(=O)[C@H](C)NC(=O)[C@H](CCC(=O)O)NC(=O)[C@H](CO)NC(=O)[C@H](CO)NC(=O)[C@@H](NC(=O)[C@H](CCC(=O)O)NC(=O)[C@H](C)NC(=O)[C@H](CCCCN)NC(=O)[C@H](CC(C)C)NC(=O)[C@@H](NC(=O)[C@H](CCCCN)NC(=O)[C@@H](NC(=O)[C@H](CCCNC(=N)N)NC(=O)[C@H](CCC(N)=O)NC(=O)[C@H](CCC(N)=O)NC(=O)[C@H](CC(C)C)NC(=O)[C@H](CCC(N)=O)NC(=O)[C@H](C)NC(=O)[C@H](C)NC(C)=O)C(C)C)[C@@H](C)O)[C@@H](C)CC)[C@@H](C)O)C(=O)N[C@@H](C)C(=O)N[C@@H](CCC(N)=O)C(=O)N[C@@H](CC(C)C)C(N)=O [Jun(Rh2)] (Ac-AAQLQQRVKTLKAEISSEASTANSLRQQIAQL-NH2; N-terminus and C-terminus assumed) |  |  |  |  |  |  | c-Fos residue modified [2]: Gln19; solubility [3]: poor solubility |
| NCCCC[C@H](N)C(=O)O [Lys] | 20 |  |  |  |  |  | % conv. at 24 h [1, 6]: 8^g %; modification of variable residue (in words) [1]: modest conversion |
| C[C@@H](O)[C@H](N)C(=O)O [Thr] |  |  |  |  |  |  | modification of variable residue (in words) [1]: not observed |
| Ac-KAEAAAEAK-NH2 [sEE4] |  | -400 | 9 | 13 | 8 |  |  |
| Ac-YGKAAAADAAADKAAAAK-NH2 [DD4] |  | -5700 | 22 | 41 | 25 | increased helicity |  |
| Ac-YGKAAAADAADAKAAAAK-NH2 [DD3] |  | -5300 | 21 | 39 | 24 | completely disrupt helicity |  |
| Ac-YGKAAAADAAEAKAAAAK-NH2 [DE3] |  | -8000 | 29 | 52 | 32 | completely disrupt helicity |  |
| Ac-YGKAAAADAGADKAAAAK-NH2 [DD4G] |  | -1100 | 9 | 17 | 11 |  |  |
| Ac-YGKAAAAEAAAEKAAAAK-NH2 [EE4] |  | -12300 | 41 | 75 | 46 | increased helicity |  |
| Ac-YGKAAAAEAADAKAAAAK-NH2 [ED3] |  | -11400 | 38 | 70 | 43 | completely disrupt helicity |  |
| Ac-YGKAAAAEAAEAKAAAAK-NH2 [EE3] |  | -11500 | 39 | 70 | 44 | increased helical |  |
| Ac-YGKAAAAEAGADKAAAAK-NH2 [ED4G] |  | -1100 | 9 | 17 | 10 |  |  |
| Ac-YGKAAAAEAGAEKAAAAK-NH2 [EE4G] |  | -1900 | 12 | 21 | 13 |  |  |
| Ac-YGKAAAAEAGEAKAAAAK-NH2 [EE3G] |  | -2500 | 13 | 24 | 15 | becomes helical |  |
| Max(Rh2): dirhodium metallopeptide based on the leucine-zipper Max (SEQ ID NO: 16) (ARRKNFTFQQNINNLKRQEALLEQQVRAL; also: dirhodium metal complex) |  |  |  |  |  |  | conversion of c-Fos ([2]; 4° C.): 72%; c-Fos residue modified [2]: both Glu14 and Glu21; conversion of c-Fos ([2]; −15° C.): 83%; TM [5]: 20 °C |
